Read-outs that look alike come from different tables or passages of the source.
Molecular target: DNMT1 (Mus musculus) (UniProt P13864)
Conditions: 5mC and 5hmC on top strand only, SAM, 37 C, 4 h

Chain of UniProt P13864 (P13864 other isoform, or with tags, fused parts or gaps): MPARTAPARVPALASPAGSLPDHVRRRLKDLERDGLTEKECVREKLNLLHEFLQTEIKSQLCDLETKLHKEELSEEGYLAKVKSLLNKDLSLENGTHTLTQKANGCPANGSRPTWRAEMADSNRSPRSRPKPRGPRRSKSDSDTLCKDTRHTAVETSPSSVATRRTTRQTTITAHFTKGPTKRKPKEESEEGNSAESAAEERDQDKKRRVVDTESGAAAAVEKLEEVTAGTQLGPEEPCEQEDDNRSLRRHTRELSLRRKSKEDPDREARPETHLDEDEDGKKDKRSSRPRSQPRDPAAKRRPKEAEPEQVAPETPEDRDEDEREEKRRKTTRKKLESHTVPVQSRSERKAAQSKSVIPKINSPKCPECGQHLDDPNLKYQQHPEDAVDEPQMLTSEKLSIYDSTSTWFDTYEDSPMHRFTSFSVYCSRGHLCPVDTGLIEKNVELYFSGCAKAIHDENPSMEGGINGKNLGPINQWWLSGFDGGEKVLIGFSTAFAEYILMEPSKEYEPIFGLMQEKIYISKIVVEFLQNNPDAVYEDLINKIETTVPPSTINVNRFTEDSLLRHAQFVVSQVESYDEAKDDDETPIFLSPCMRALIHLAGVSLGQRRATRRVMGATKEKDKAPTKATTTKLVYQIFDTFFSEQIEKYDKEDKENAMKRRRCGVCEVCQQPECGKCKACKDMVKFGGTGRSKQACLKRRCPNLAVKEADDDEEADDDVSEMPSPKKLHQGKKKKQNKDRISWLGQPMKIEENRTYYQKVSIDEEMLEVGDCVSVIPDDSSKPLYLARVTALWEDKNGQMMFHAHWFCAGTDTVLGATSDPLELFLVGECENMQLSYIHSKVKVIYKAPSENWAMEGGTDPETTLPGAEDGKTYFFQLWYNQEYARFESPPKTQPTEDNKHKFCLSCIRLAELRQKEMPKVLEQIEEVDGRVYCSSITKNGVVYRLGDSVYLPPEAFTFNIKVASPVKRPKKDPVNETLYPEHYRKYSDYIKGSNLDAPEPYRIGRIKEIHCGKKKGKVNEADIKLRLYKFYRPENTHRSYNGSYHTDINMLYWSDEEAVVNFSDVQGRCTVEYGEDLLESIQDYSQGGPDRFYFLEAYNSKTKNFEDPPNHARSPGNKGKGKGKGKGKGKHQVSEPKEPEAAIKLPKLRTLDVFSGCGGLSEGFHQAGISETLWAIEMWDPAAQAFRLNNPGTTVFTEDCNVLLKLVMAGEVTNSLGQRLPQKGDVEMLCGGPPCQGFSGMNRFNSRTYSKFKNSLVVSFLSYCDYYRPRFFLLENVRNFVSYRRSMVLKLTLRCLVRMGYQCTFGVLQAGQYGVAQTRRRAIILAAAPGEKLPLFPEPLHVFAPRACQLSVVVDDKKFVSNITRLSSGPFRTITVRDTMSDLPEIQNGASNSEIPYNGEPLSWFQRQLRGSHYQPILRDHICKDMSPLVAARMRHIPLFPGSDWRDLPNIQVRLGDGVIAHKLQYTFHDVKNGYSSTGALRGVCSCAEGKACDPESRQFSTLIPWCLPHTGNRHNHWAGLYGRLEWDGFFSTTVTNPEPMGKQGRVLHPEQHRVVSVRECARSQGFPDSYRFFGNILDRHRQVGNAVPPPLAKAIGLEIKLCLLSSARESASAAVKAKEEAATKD

Substance: 112 bp 5hmC:C:5meC top/unmodified bottom duplex, unmodified CpG site
- activity (no methylation by bisulfite sequencing): 0%

Substance: 112 bp 5hmC:C:5meC top/unmodified bottom duplex, hemi-5hmC CpG site
- activity (no methylation across from 5hmC): 0%

Substance: 112 bp 5hmC:C:5meC top/unmodified bottom duplex, hemi-5meC CpG site
- activity (methylation by bisulfite sequencing (14 of 16 clones)): 87.5%
